From PMC2779421
Where “and” joins values, the source holds several entries; their conditions need not be identical. Equal values may be shown once.

Tests used:
[1] = molecular target: β-Amyloid peptide Aβ-(1–40); assay: continuous-wave EPR
[2] = molecular target: β-Amyloid peptide Aβ-(1–40); assay: filtration

- % of the slow component (larger aggregates) in the total spectrum, 5–6 h [1]: 34%
- stoichiometry N [1]: 8 molecules and 15 molecules
- % of the slow component (larger aggregates) in the total spectrum, retentate [2]: 34%
Substance: Spin-labeled Cys-(Aβ) (40 residue Aβ peptide variant containing an N-terminal cysteine, labeled with MTSL)
